Laboratory results published in patent publication US20230190950A1, “COMPOSITIONS AND METHODS FOR THE TREATMENT OF BACTERIAL INFECTIONS” (Cidara Therapeutics, Inc., priority 2017, published 2023).

Legend:
[1] = tested on: Escherichia coli ATCC 25922; test: MIC assay (broth microdilution), Ec 25922; assay type: cell-based; conditions: assay media RPMI A; for MIC, Ec 25922 + FBS: 50% heat-inactivated FBS
Method: (§1) Bacterial strains were stored as glycerol stocks at −80° C. prior to culturing on cation-adjusted Mueller-Hinton agar (MHA; BD cat. no. 211438) at 37° C. Antibacterial activity was assessed against a panel consisting of Escherichia coli, Acinetobacter baumannii, Pseudomonas aeruginosa, and Klebsiella pneumoniae strains (see Table 2).
(§2) Briefly, stock solutions of all antibacterial agents were prepared fresh in appropriate solvents (i.e. PBS, pH 7.4, DMSO, DI, etc.). Stock concentrations were made at 50× the highest final assay concentration and serially diluted 2-fold, 8 or 12 times in a 96-well PCR plate (VWR cat. no. 83007-374). Bacterial cell suspensions generated from MHA plate cultures were prepared in 0.85% saline and adjusted to ˜0.1 OD600 nm. […] Dorschner R A et al., The mammalian ionic environment dictates microbial susceptibility to antimicrobial defense peptides. FASEB J. 20(1):35-42 (2017). Ninety-eight microliters of each cell suspension in MHB were added to test wells in a 96-well assay plate (Costar cat. no. 3370). A Beckman Multimek 96 liquid handling robot was used to dispense 2 μL of each 50× stock compound into the plate containing 98 μL of each strain in MHB (2% final solvent concentration). E. coli strains BW25113 and ATCC 25922 were run in the presence and absence of 50% heat-inactivated fetal bovine serum (FBS; Sigma, cat. no. F4135-100 mL). Plates were mixed by shaking then incubated at 37° C. overnight (16-20 h).

[2] = tested on: Escherichia coli BW25113; test: MIC assay (broth microdilution), Ec BW; assay type: cell-based; conditions: assay media RPMI A; for MIC, Ec BW + FBS: 50% heat-inactivated FBS
Method: as §1, §2

[3] = tested on: Pseudomonas aeruginosa PAO1; test: MIC assay (broth microdilution), Pa PAO1; assay type: cell-based; conditions: assay media RPMI A
Method: as §1
(§3) Briefly, stock solutions of all antibacterial agents were prepared fresh in appropriate solvents (i.e. PBS, pH 7.4, DMSO, DI, etc.). Stock concentrations were made at 50× the highest final assay concentration and serially diluted 2-fold, 8 or 12 times in a 96-well PCR plate (VWR cat. no. 83007-374). Bacterial cell suspensions generated from MHA plate cultures were prepared in 0.85% saline and adjusted to ˜0.1 OD600 nm. Next, cell suspensions were diluted 1:200 in RPMI containing 5% Luria Broth (LB) to improve bacterial growth (BD Difco, cat. no. 244620) to a concentration of ˜5×10^5 CFU (colony-forming units)/mL. […] Later, conjugates 16 and 17, and 20-25 were evaluated in RPMI 1640 medium (+) L-glutamine, (+) sodium bicarbonate, pH 7.4 (“RPMI B”; Gibco, cat. no. 11875-085) as has been described as a more physiologically-relevant media for susceptibility testing of antibacterial compounds. Dorschner R A et al., The mammalian ionic environment dictates microbial susceptibility to antimicrobial defense peptides. FASEB J. 20(1):35-42 (2017). Ninety-eight microliters of each cell suspension in MHB were added to test wells in a 96-well assay plate (Costar cat. no. 3370). A Beckman Multimek 96 liquid handling robot was used to dispense 2 μL of each 50× stock compound into the plate containing 98 μL of each strain in MHB (2% final solvent concentration). E. coli strains BW25113 and ATCC 25922 were run in the presence and absence of 50% heat-inactivated fetal bovine serum (FBS; Sigma, cat. no. F4135-100 mL). Plates were mixed by shaking then incubated at 37° C. overnight (16-20 h).

[4] = tested on: Escherichia coli BW25113 4X-12 (COL-R); test: MIC assay (broth microdilution), Ec BW 4X-12 (COL-R); assay type: cell-based; conditions: assay media RPMI A
Method: as §1, §3

[5] = tested on: Acinetobacter baumannii ABS075-UW; test: MIC assay (broth microdilution), Ab ABS075; assay type: cell-based; conditions: assay media RPMI A
Method: as §1, §2

[6] = target: T1, recombinant mouse FcRn (Mus musculus, UniProt Q61559); test: Binding of conjugates to FcRn (ELISA), mouse; conditions: pH 6.25; 20 μg/mL starting concentration, 2-fold diluted
T1 construct: purchased R&D 6775-FC-050
T1 sequence (Q61559 22-297 limits assumed): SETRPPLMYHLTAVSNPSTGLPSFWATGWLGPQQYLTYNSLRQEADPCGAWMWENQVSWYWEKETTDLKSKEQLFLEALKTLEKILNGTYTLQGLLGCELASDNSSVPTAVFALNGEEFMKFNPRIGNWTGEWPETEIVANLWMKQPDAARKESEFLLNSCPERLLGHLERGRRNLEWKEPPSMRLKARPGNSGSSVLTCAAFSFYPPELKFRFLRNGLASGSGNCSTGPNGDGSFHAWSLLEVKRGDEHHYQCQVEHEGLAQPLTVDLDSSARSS
T1 sequence (P01887 21-119 partner): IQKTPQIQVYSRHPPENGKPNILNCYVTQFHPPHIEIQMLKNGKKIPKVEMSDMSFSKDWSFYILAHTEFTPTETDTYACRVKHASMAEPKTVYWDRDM
Method: 96-well ELISA plates (Fisher, Cat. No. 12-565-136) were coated with 0.25 μg/well of recombinant mouse FcRn (R&D, Cat. No. 6775-FC-050) or recombinant human FcRn (R&D, Cat. No. 8639-FC-050) in carbonate-bicarbonate buffer (Sigma, Cat. No. C34041) at pH 6.25 overnight at 37° C. A pH of 6.25 was maintained during the complete experiment. Blocking was carried out with 5% skim milk in PBS with 0.05% Tween 20. Purified conjugates were added at 20 μg/mL starting concentration and serially 2-fold diluted in blocking buffer. For detection, HRP-labeled secondary anti-mouse IgG-HRP (GE Healthcare, Cat. No. NA931V) or anti-human IgG-HRP (GE Healthcare, Cat. No. NA933V) was used to detect the bound conjugates. Absorbance was measured at 450 nm with a 96-well microplate reader and data were analyzed using GraphPad Prism software, FIGS. 33A-33F.

[7] = tested on: Escherichia coli ATCC BAA-2469; test: MIC assay (broth microdilution), Ec 2469; assay type: cell-based; conditions: assay media RPMI A
Method: as §1, §2

[8] = tested on: Escherichia coli BW25113 + pUC18-mcr-1; test: MIC assay (broth microdilution), Ec BW (mcr-1); assay type: cell-based; conditions: assay media RPMI A
Description: An mcr-1 expression plasmid was constructed (GenScript; Piscataway, N.J.) using the pUC18 high copy number plasmid (Yanisch-Perron, et al., 1985). A 1649-bp fragment was synthesized containing, in order from 5′ to 3′: EcoR1 restriction site (5′-GAATTC-3′), a ribosomal binding site (5′-AGGAGG-3′), a 5-bp native start codon upstream sequence (5′-TTCTC-3′) from the mcr-1-bearing plasmid pHNSHP45 (Liu, Y Y, et al., 2015; GenBank Accession #KP347127), the 1626-bp mcr-1 open reading frame with stop codon (“orf00073” of GenBank Accession #KP347127), and finally an Xba1 restriction site sequence (5′-TCTAGA-3′). […] The pUC18-mcr-1 plasmid was transformed into chemically-competent E. coli BW25113 (Coli Genetic Stock Center #7636) as described previously (Chung, et al., PNAS. 1989), recovered for 1 h shaking at 37° C. in Super Optimal broth with Catabolite repression (SOC) media and then aliquots were plated on Luria-Bertani (LB) media containing 100 μg/mL of carbenicillin. Putative transformant colonies were then verified in MIC assays.
as §1
Briefly, stock solutions of all antibacterial agents were prepared fresh in appropriate solvents (i.e. PBS, pH 7.4, DMSO, DI, etc.). Stock concentrations were made at 50× the highest final assay concentration and serially diluted 2-fold, 8 or 12 times in a 96-well PCR plate (VWR cat. no. 83007-374). Bacterial cell suspensions generated from MHA plate cultures were prepared in 0.85% saline and adjusted to ˜0.1 OD600 nm. […] Later, conjugates 16 and 17, and 20-25 were evaluated in RPMI 1640 medium (+) L-glutamine, (+) sodium bicarbonate, pH 7.4 (“RPMI B”; Gibco, cat. no. 11875-085) as has been described as a more physiologically-relevant media for susceptibility testing of antibacterial compounds. […]

[9] = tested on: Acinetobacter baumannii ATCC 19606; test: MIC assay (broth microdilution), Ab 19606; assay type: cell-based; conditions: assay media RPMI A
Method: as §1, §2

[10] = tested on: Pseudomonas aeruginosa ATCC 27853; test: MIC assay (broth microdilution), Pa 27853; assay type: cell-based; conditions: assay media RPMI A
Method: as §1
(§4) Briefly, stock solutions of all antibacterial agents were prepared fresh in appropriate solvents (i.e. PBS, pH 7.4, DMSO, DI, etc.). Stock concentrations were made at 50× the highest final assay concentration and serially diluted 2-fold, 8 or 12 times in a 96-well PCR plate (VWR cat. no. 83007-374). Bacterial cell suspensions generated from MHA plate cultures were prepared in 0.85% saline and adjusted to ˜0.1 OD600 nm. Next, cell suspensions were diluted 1:200 in RPMI containing 5% Luria Broth (LB) to improve bacterial growth (BD Difco, cat. no. 244620) to a concentration of ˜5×10^5 CFU (colony-forming units)/mL. […] Later, conjugates 16 and 17, and 20-25 were evaluated in RPMI 1640 medium (+) L-glutamine, (+) sodium bicarbonate, pH 7.4 (“RPMI B”; Gibco, cat. no. 11875-085) as has been described as a more physiologically-relevant media for susceptibility testing of antibacterial compounds. Dorschner R A et al., The mammalian ionic environment dictates microbial susceptibility to antimicrobial defense peptides. FASEB J. 20(1):35-42 (2017). […]

[11] = tested on: Acinetobacter baumannii ATCC 179778; test: MIC assay (broth microdilution), Ab 17978; assay type: cell-based; conditions: assay media RPMI A
Method: as §1, §4

B1: Conjugate 4 (conjugate)
chain: PRGPTIKPCPPCKCPAPNLLGGPSVFIFPPKIKDVLMISLSPIVTCVVVDVSEDDPDVQISWFVNNVEVHTAQTQTHREDYNSTLRVVSALPIQHQDWMSGKEFKCKVNNKDLPAPIERTISKPKGSVRAPQVYVLPPPEEEMTKKQVTLTCMVTDFMPEDIYVEWTNNGKTELNYKNTEPVLDSDGSYFMYSKLRVEKKNWVERNSYSCSVVHEGLHNHHTTKSFSRTPGKHHHHHH
modifications: cyclised or stapled
Question: Which results are given for B1?
Answer: MIC, Ec 25922 [1]: >128 µg/mL; MIC, Ec 25922 + FBS [1]: 64 µg/mL; MIC, Ec BW [2]: 32 µg/mL; MIC, Ec BW + FBS [2]: 32 µg/mL; MIC Pa PAO1 [3]: 16 µg/mL; MIC, Ec BW 4X-12 (COL-R) [4]: >128 µg/mL; MIC Ab AB5075 [5]: 32 µg/mL; binding to mouse FcRn (ELISA) [6]: does not interfere with FcRn interaction; MIC, Ec 2469 [7]: >128 µg/mL; MIC, Ec BW (mcr-1) [8]: >128 µg/mL; MIC Ab 19606 [9]: 32 µg/mL

B2: Conjugate 26: "Conjugate of m-IgG2a(His)6 Fc-3(Int-13)"; mlgG2a(His)6 Fc (SEQ ID NO: 6), reduced hinge disulfides; DAR=2/Fc dimer (conjugate)
chain: PRGPTIKPCPPCKCPAPNLLGGPSVFIFPPKIKDVLMISLSPIVTCVVVDVSEDDPDVQISWFVNNVEVHTAQTQTHREDYNSTLRVVSALPIQHQDWMSGKEFKCKVNNKDLPAPIERTISKPKGSVRAPQVYVLPPPEEEMTKKQVTLTCMVTDFMPEDIYVEWTNNGKTELNYKNTEPVLDSDGSYFMYSKLRVEKKNWVERNSYSCSVVHEGLHNHHTTKSFSRTPGKHHHHHH
modifications: conjugated to Int-13 at hinge cysteines
notes: "Conjugate of m-IgG2a(His)6 Fc-3(Int-13)"; DAR=2/Fc dimer
Question: Which results are given for B2?
Answer: MIC, Ec 25922 [1]: >128 µg/mL; MIC, Ec 25922 + FBS [1]: 128 µg/mL; MIC, Ec BW [2]: 16 µg/mL; MIC, Ec BW + FBS [2]: 32 µg/mL; MIC Pa PAO1 [3]: 64 µg/mL; MIC, Ec BW 4X-12 (COL-R) [4]: >128 µg/mL; MIC Ab AB5075 [5]: 32 µg/mL; MIC Pa 27853 [10]: 16 µg/mL; MIC, Ec 2469 [7]: 32 µg/mL; MIC, Ec BW (mcr-1) [8]: >128 µg/mL; MIC Ab 19606 [9]: 128 µg/mL; MIC Ab 17978 [11]: 64 µg/mL
